This passage reports Relative Binding Capability (%) results from patent publication US20090155256A1.

For this test, the target named is His-tagged domains of human FcγRII (R&D Systems, Cat # 1330-CD) (human) (UniProt P12318). Description: SPR (Biacore 3000), His-tagged receptor captured by penta-His antibody on CM5 chip, antibody injected; RU relative to control.

With “Bapineuzumab (humanized 3D6, human IgG1, no Fc mutations) (antibody)”, the Relative Binding Capability (%) worked out at 100%.
